This data set addresses T1, Gly-Asp-Asp-Asp-Asp-Lys-β-naphthylamide.
T1 chain: GDDDDK

B1: CBM-enterokinase produced transiently in lettuce and purified on cellulose (protein)
chain: MVATAKYGTPVIDGEIDEIWNTTEEIETKAVAMGSLDKNATAKVRVLWDENYLYVLAIVKDPVLNKDNSNPWEQDSVEIFIDENNHKTGYYEDDDAQFRVNYMNEQTFGTGGSPARFKTAVKLIEGGYIVEAAIKWKTIKPTPNTVIGFNIQVNDANEKGQRVGIISWSDPTNNSWRDPSKFGNLRLIK
Regarding B1, the Enterokinase activity is listed as 442,7 cps/min/µg.
